Results taken from article PMC6957217.

Biological target: Three of the mutant needles, I933A, N937A, and G938A
Assay: ELISA; gp37 trimers coated (100 ng/well) overnight at 4°C, casein block, OmpC added (various molar ratios; gp37:OmpC 1:1 for the mutants), 37°C 2 hr, PBS-T washes, bound OmpC detected with mouse anti-OmpC sera and HRP anti-mouse IgG

B1: recombinant OmpC trimer (outer membrane protein C) (natural protein)
chain: AEVYNKDGNKLDLYGKVDGLHYFSDNKDVDGDQTYMRLGFKGETQVTDQLTGYGQWEYQIQGNSAENENNSWTRVAFAGLKFQDVGSFDYGRNYGVVYDVTSWTDVLPEFGGDTYGSDNFMQQRGNGFATYRNTDFFGLVDGLNFAVQYQGKNGNPSGEGFTSGVTNNGRDALRQNGDGVGGSITYDYEGFGIGGAISSSKRTDAQNTAAYIGNGDRAETYTGGLKYDANNIYLAAQYTQTYNATRVGSLGWANKAQNFEAVAQYQFDFGLRPSLAYLQSKGKNLGRGYDDEDILKYVDVGATYYFNKNMSTYVDYKINLLDDNQFTRDAGINTDNIVALGLVYQF
B1 showed a fold binding against the WT needle of 2 to 3 fold.
